Legend:
[1] = biological target: T1, VCY (Variable charge Y-linked) CT antigen; peptide VCY-23 peptide on HLA-A*11:01 (human); assay: multimer staining
T1 peptide: SSQPSPSGPK

[2] = biological target: T2, VCX; peptide VCX-23 peptide on HLA-A*11:01 (human); assay: killing
T2 peptide: SSQPSPSDPK

binding result [1]: recognises
B1: VCY-23 specific TCR (TCR, V domains shown)
Valpha: RKEVEQDPGPFNVPEGATVAFNCTYSNSASQSFFWYRQDCRKEPKLLMSVYSSGNEDGRFTAQLNRASQYISLLIRDSKLSDSATYLCVVTFDNYGQNFVFGPGTRLSVLP
Vbeta: NAGVTQTPKFRVLKTGQSMTLLCAQDMNHEYMYWYRQDPGMGLRLIHYSVGEGTTAKGEVPDGYNVSRLKKQNFLLGLESAAPSQTSVYFCASSYTYNYNEQFFGPGTRLTVL
binding result [2]: no recognition
